The text below walks through data of US20030022833A1 (GREENVILLE HOSPITAL SYSTEM, published 2003).

Several values for one entry are separate records, joined by “and”; a condition that tells them apart may be missing. Identical values can stand only once.

The assay addresses T1, human prolactin receptor (human, UniProt P16471 25-622).
T1 sequence (looked up): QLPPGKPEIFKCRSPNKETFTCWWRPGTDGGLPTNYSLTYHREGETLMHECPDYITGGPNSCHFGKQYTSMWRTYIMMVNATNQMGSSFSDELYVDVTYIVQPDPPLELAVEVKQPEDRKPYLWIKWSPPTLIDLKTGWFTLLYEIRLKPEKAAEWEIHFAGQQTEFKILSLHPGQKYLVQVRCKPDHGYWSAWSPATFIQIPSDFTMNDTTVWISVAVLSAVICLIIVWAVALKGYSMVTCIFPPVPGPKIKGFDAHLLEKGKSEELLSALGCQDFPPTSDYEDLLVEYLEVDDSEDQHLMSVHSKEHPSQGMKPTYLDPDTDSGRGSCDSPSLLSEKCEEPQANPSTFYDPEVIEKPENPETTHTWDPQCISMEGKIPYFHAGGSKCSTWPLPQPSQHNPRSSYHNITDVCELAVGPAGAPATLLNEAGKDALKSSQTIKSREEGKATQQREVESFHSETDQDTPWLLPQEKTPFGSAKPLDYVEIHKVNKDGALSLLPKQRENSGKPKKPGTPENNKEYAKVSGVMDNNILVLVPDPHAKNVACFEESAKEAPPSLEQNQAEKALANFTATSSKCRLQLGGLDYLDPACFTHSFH
Kind of assay: cell-based or functional assay.

On to “G129R variant of human prolactin (from UniProt P01236 29-227) (ligand)”, for which the T47-D cell proliferation (96 well MTS assay) (molar ratio hPRL-G129R:hPRL) was 1 and 2; the apoptosis (DNA fragmentation, TUNEL assay) in T-47D cells worked out at 1; the tyrosine phosphorylation of STAT proteins in T47-D cells (anti-phosphotyrosine immunoblot) (ratio hPRL-G129R:hPRL) was determined as 5.

B1: human prolactin (ligand, UniProt P01236 29-227, looked up)
chain: LPICPGGAARCQVTLRDLFDRAVVLSHYIHNLSSEMFSEFDKRYTHGRGFITKAINSCHTSSLATPEDKEQAQQMNQKDFLSLIVSILRSWNEPLYHLVTEVRGMQEAPEAILSKAVEIEEQTKRLLEGMELIVSQVHPETKENEIYPVWSGLPSLQMADEESRLSAYYNLLHCLRRDSHKIDNYLKLLKCRIIHNNNC
For B1, the “apoptosis (DNA fragmentation, TUNEL assay) in T-47D cells” value is 4 ratio hPRL:G129R.
